Laboratory results from publication PMC3396760.

Experiment: in-culture cell surface labelling with cell-impermeable BG-682
Conditions: glycan lost; control: wild type SNAP-Crb3a

B1: Crumbs3a (Crb3a): N36D (protein)
parent chain: MANPGLGLLLALGLPFLLARWGRAWGQIQTTSANENSTVLPSSTSSSSDGNLRPEAITAIIVVFSLLAALLLAVGLALLVRKLREKRQTEGTYRPSSEEQVGARVPPTPNLKLPPEERLI
localisation_or_trafficking: no change
